Molecular target: GST-DLG1 PDZ domains 1-2 fusion protein (human) (UniProt Q12959)
Test: competition G assay, 100 uM unlabeled 8-mer against 20 uM biotin-labeled AA2L on GST-DLG1

percent inhibition: > 50%
Substance: eight amino acid CLASP-2 peptide MTSSSSVV (unlabeled)

Reference: patent EP2385124A2
